In publication PMC10713552 (Communications Biology, 2023):
Where a chain is given by its changes, count along the chain named.

B1: 0388-YN3_T65Q (antibody, V domains shown)
VH: QVQLQQWGPGLVNPSETLSLTCSVSGGSFATENYYWSWIRQHPGEGLEWIGNIYFSGNQYYNPSLNNRFTISFDTSKNHLSLKLPSVTAADTAVYYCARGTIYFDYSGYRRVDPFHIWGQGTMVIVSS
VL: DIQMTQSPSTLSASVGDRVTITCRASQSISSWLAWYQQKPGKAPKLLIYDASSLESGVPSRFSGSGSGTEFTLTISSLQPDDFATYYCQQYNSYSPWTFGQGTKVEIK
notes: source: Expi293F, transfected
B2: 0319-LN3_T65A (antibody, V domains shown)
VH: B1 VH with Q59A, Y106L
VL: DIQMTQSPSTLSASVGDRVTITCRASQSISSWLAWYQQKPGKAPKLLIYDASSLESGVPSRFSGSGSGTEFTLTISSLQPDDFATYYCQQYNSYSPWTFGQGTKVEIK
notes: source: Expi293F, transfected
B3: 0351-MN3_T65R (antibody, V domains shown)
VH: B1 VH with Q59R, Y106M
VL: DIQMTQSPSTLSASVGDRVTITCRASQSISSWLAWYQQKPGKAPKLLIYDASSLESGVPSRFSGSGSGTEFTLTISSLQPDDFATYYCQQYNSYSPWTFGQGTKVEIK
notes: source: Expi293F, transfected
B4: 0327-LN3_T65L (antibody, V domains shown)
VH: B1 VH with Q59L, Y106L
VL: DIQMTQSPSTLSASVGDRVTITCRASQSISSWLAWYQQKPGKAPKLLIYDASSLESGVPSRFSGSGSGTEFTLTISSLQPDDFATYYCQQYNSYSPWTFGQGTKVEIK
notes: source: Expi293F, transfected
B5: 0383-YN3_T65K (antibody, V domains shown)
VH: B1 VH with Q59K
VL: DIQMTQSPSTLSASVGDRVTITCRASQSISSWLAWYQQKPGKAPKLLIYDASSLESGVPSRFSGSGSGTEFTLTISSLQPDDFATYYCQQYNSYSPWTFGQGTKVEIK
notes: source: Expi293F, transfected
B6: 0335-LN3_T65V (antibody, V domains shown)
VH: B1 VH with Q59V, Y106L
VL: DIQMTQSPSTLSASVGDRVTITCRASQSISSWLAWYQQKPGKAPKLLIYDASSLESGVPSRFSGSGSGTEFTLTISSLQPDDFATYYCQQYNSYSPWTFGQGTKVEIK
notes: source: Expi293F, transfected
B7: 0348-MN3_T65N (antibody, V domains shown)
VH: B1 VH with Q59N, Y106M
VL: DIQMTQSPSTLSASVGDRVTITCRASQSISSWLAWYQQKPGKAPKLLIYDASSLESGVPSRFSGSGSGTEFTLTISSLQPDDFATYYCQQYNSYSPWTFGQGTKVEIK
notes: source: Expi293F, transfected
B8: 0371-N3_T65S (antibody, V domains shown)
VH: B1 VH with Q59S, Y106R
VL: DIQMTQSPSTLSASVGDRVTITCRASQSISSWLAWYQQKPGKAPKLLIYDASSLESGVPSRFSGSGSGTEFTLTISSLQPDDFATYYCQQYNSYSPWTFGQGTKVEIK
notes: source: Expi293F, transfected
B9: 0363-N3_T65I (antibody, V domains shown)
VH: B1 VH with Q59I, Y106R
VL: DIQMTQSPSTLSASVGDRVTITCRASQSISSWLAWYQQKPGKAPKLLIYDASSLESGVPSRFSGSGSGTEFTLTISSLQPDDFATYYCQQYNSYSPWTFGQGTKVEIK
notes: source: Expi293F, transfected
B10: 0362-N3_T65H (antibody, V domains shown)
VH: B1 VH with Q59H, Y106R
VL: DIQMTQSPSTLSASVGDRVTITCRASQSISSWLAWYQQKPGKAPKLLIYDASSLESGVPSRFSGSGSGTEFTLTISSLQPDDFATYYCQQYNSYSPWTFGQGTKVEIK
notes: source: Expi293F, transfected
B11: 0379-YN3_T65F (antibody, V domains shown)
VH: B1 VH with Q59F
VL: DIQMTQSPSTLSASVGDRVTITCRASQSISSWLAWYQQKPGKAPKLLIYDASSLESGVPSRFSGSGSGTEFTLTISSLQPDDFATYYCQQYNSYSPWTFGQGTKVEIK
notes: source: Expi293F, transfected
B12: 0352-MN3_T65S (antibody, V domains shown)
VH: B1 VH with Q59S, Y106M
VL: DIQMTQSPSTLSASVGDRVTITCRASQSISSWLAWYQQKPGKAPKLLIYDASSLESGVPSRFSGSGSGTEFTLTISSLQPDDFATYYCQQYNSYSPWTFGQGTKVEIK
notes: source: Expi293F, transfected
B13: 0344-MN3_T65I (antibody, V domains shown)
VH: B1 VH with Q59I, Y106M
VL: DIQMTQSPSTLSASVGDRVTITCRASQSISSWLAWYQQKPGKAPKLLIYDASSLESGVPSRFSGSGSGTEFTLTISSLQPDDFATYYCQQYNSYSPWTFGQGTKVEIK
notes: source: Expi293F, transfected
B14: 0329-LN3_T65N (antibody, V domains shown)
VH: B1 VH with Q59N, Y106L
VL: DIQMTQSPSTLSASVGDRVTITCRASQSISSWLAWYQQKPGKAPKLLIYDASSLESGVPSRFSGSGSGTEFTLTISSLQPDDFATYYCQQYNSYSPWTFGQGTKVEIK
notes: source: Expi293F, transfected
B15: 0341-MN3_T65F (antibody, V domains shown)
VH: B1 VH with Q59F, Y106M
VL: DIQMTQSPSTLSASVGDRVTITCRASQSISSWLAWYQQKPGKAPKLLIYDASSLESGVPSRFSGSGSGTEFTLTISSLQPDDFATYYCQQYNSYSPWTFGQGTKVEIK
notes: source: Expi293F, transfected
B16: 0350-MN3_T65Q (antibody, V domains shown)
VH: B1 VH with Y106M
VL: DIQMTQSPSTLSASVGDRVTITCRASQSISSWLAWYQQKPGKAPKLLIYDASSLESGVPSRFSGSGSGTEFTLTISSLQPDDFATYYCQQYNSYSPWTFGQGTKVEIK
notes: source: Expi293F, transfected
B17: 0354-MN3_T65V (antibody, V domains shown)
VH: B1 VH with Q59V, Y106M
VL: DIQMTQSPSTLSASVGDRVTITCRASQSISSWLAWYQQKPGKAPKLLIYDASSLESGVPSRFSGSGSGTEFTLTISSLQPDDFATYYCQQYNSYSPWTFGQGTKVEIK
notes: source: Expi293F, transfected
B18: 0346-MN3_T65L (antibody, V domains shown)
VH: B1 VH with Q59L, Y106M
VL: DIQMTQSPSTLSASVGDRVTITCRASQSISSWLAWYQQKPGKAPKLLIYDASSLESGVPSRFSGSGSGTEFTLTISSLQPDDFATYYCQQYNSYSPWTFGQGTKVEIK
notes: source: Expi293F, transfected
B19: 0331-LN3_T65Q (antibody, V domains shown)
VH: B1 VH with Y106L
VL: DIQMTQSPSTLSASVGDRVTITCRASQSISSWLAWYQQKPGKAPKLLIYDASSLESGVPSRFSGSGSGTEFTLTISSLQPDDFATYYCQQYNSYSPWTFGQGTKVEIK
notes: source: Expi293F, transfected
B20: 0358-N3_T65D (antibody, V domains shown)
VH: B1 VH with Q59D, Y106R
VL: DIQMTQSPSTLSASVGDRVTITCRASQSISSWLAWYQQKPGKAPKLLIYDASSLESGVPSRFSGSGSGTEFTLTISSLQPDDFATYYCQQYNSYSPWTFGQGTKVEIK
notes: source: Expi293F, transfected
B21: 0378-YN3_T65E (antibody, V domains shown)
VH: B1 VH with Q59E
VL: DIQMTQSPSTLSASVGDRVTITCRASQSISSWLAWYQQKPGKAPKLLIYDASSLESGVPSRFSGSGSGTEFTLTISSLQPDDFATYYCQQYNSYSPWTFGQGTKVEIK
notes: source: Expi293F, transfected
B22: 0347-MN3_T65M (antibody, V domains shown)
VH: B1 VH with Q59M, Y106M
VL: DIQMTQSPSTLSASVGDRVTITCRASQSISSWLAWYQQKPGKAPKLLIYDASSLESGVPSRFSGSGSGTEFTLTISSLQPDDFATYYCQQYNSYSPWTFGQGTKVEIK
notes: source: Expi293F, transfected
B23: 0380-YN3_T65G (antibody, V domains shown)
VH: B1 VH with Q59G
VL: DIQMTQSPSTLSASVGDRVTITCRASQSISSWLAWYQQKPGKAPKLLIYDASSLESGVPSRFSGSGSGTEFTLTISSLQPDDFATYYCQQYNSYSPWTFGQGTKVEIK
notes: source: Expi293F, transfected
B24: 0386-YN3_T65N (antibody, V domains shown)
VH: B1 VH with Q59N
VL: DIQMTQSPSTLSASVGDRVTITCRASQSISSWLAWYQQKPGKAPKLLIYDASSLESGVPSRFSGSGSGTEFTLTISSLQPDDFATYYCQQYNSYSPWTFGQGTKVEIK
notes: source: Expi293F, transfected
B25: 0374-N3_T65W (antibody, V domains shown)
VH: B1 VH with Q59W, Y106R
VL: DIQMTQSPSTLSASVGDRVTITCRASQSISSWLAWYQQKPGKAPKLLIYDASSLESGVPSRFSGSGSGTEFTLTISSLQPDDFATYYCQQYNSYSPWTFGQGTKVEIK
notes: source: Expi293F, transfected
B26: 0340-MN3_T65E (antibody, V domains shown)
VH: B1 VH with Q59E, Y106M
VL: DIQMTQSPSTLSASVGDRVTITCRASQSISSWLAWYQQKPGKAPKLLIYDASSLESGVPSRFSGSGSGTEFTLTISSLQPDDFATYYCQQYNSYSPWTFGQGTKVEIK
notes: source: Expi293F, transfected
B27: 0367-N3_T65N (antibody, V domains shown)
VH: B1 VH with Q59N, Y106R
VL: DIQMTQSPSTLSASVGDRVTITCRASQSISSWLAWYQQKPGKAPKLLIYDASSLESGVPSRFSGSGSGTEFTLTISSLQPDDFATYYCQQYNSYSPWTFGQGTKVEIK
notes: source: Expi293F, transfected
B28: 0345-MN3_T65K (antibody, V domains shown)
VH: B1 VH with Q59K, Y106M
VL: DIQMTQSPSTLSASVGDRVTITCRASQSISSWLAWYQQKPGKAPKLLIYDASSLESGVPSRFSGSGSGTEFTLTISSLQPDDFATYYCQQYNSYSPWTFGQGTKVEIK
notes: source: Expi293F, transfected

Assays:
[1] = molecular target: D614G-Hexapro (WT) spike ectodomain (SARS-CoV-2 Wuhan-Hu-1 D614G, D614G); assay: BLI
[2] = molecular target: Omicron BA.1 spike protein ectodomain (BLI) (SARS-CoV-2 Omicron BA.1, strain); assay: BLI

| Binder | Kd [1] | koff [1] | kon [1] | Kd [2] | koff [2] | kon [2] |
| --- | --- | --- | --- | --- | --- | --- |
| B1 | 1910 nM | 0.00186 s⁻¹ | 973 M⁻¹ s⁻¹ | 37.7 nM | 0.00058 s⁻¹ | 15400 M⁻¹ s⁻¹ |
| B2 | 244 nM | 0.000836 s⁻¹ | 3430 M⁻¹ s⁻¹ | 59.6 nM | 0.00229 s⁻¹ | 38400 M⁻¹ s⁻¹ |
| B3 | 3.87 nM | 0.000806 s⁻¹ | 208000 M⁻¹ s⁻¹ | 175 nM | 0.00187 s⁻¹ | 10700 M⁻¹ s⁻¹ |
| B4 | 183 nM | 0.00127 s⁻¹ | 6950 M⁻¹ s⁻¹ | 58.6 nM | 0.00147 s⁻¹ | 25100 M⁻¹ s⁻¹ |
| B5 | 682 nM | 0.000178 s⁻¹ | 261 M⁻¹ s⁻¹ | 50.6 nM | 0.00099 s⁻¹ | 19600 M⁻¹ s⁻¹ |
| B6 | 135 nM | 0.000502 s⁻¹ | 3730 M⁻¹ s⁻¹ | 49.2 nM | 0.00196 s⁻¹ | 39700 M⁻¹ s⁻¹ |
| B7 | 130 nM | 9.93e-05 s⁻¹ | 765 M⁻¹ s⁻¹ | 43 nM | 0.00196 s⁻¹ | 45700 M⁻¹ s⁻¹ |
| B8 | 592 nM | 0.000157 s⁻¹ | 265 M⁻¹ s⁻¹ | 108 nM | 0.00113 s⁻¹ | 10400 M⁻¹ s⁻¹ |
| B9 | 71 nM | 2.3e-05 s⁻¹ | 324 M⁻¹ s⁻¹ | 1580 nM | 0.00106 s⁻¹ | 673 M⁻¹ s⁻¹ |
| B10 | 318 nM | 0.00046 s⁻¹ | 1450 M⁻¹ s⁻¹ | 378 nM | 0.00114 s⁻¹ | 3020 M⁻¹ s⁻¹ |
| B11 | 2000 nM | 0.000202 s⁻¹ | 101 M⁻¹ s⁻¹ | 89.3 nM | 0.00105 s⁻¹ | 11700 M⁻¹ s⁻¹ |
| B12 | 6.97 nM | 0.0014 s⁻¹ | 201000 M⁻¹ s⁻¹ | 124 nM | 0.0017 s⁻¹ | 13700 M⁻¹ s⁻¹ |
| B13 | 1670 nM | 0.0005 s⁻¹ | 299 M⁻¹ s⁻¹ | 151 nM | 0.0026 s⁻¹ | 17200 M⁻¹ s⁻¹ |
| B14 | 187 nM | 0.000519 s⁻¹ | 2780 M⁻¹ s⁻¹ | 98.7 nM | 0.000925 s⁻¹ | 9380 M⁻¹ s⁻¹ |
| B15 | 146 nM | 0.000179 s⁻¹ | 1230 M⁻¹ s⁻¹ | 41.2 nM | 0.00171 s⁻¹ | 41500 M⁻¹ s⁻¹ |
| B16 | 643 nM | 0.00015 s⁻¹ | 233 M⁻¹ s⁻¹ | 38.5 nM | 0.000871 s⁻¹ | 22700 M⁻¹ s⁻¹ |
| B17 | 292 nM | 0.00118 s⁻¹ | 4030 M⁻¹ s⁻¹ | 67.6 nM | 0.00153 s⁻¹ | 22700 M⁻¹ s⁻¹ |
| B18 | 3320 nM | 0.000421 s⁻¹ | 127 M⁻¹ s⁻¹ | 64.2 nM | 0.00252 s⁻¹ | 39200 M⁻¹ s⁻¹ |
| B19 | 1.18 nM | 0.00083 s⁻¹ | 703000 M⁻¹ s⁻¹ | 38.2 nM | 0.00223 s⁻¹ | 58400 M⁻¹ s⁻¹ |
| B20 |  |  | 174 M⁻¹ s⁻¹ | 68.8 nM | 0.000857 s⁻¹ | 12500 M⁻¹ s⁻¹ |
| B21 | 0.186 nM | 0.000168 s⁻¹ | 906000 M⁻¹ s⁻¹ | 1740 nM | 0.000439 s⁻¹ | 253 M⁻¹ s⁻¹ |
| B22 | 880 nM | 0.000233 s⁻¹ | 264 M⁻¹ s⁻¹ | 39.7 nM | 0.00209 s⁻¹ | 52700 M⁻¹ s⁻¹ |
| B23 | 77.3 nM | 0.000311 s⁻¹ | 4020 M⁻¹ s⁻¹ | 4980 nM | 0.00218 s⁻¹ | 438 M⁻¹ s⁻¹ |
| B24 | 8.83 nM | 0.00138 s⁻¹ | 156000 M⁻¹ s⁻¹ | 66.3 nM | 0.00052 s⁻¹ | 7850 M⁻¹ s⁻¹ |
| B25 |  |  | 190 M⁻¹ s⁻¹ | 42.5 nM | 0.000694 s⁻¹ | 16300 M⁻¹ s⁻¹ |
| B26 | 371 nM | 7.27e-05 s⁻¹ | 196 M⁻¹ s⁻¹ | 48.2 nM | 0.0021 s⁻¹ | 43700 M⁻¹ s⁻¹ |
| B27 | 1.09 nM | 0.000175 s⁻¹ | 160000 M⁻¹ s⁻¹ | 642 nM | 0.00176 s⁻¹ | 2740 M⁻¹ s⁻¹ |
| B28 | 346 nM | 7.97e-05 s⁻¹ | 230 M⁻¹ s⁻¹ | 41.4 nM | 0.00172 s⁻¹ | 41600 M⁻¹ s⁻¹ |
